The chains are these.
B1: R1084: PD-L1_VH (G44C)_IL15RA/PD-L1_VL(Q101C)_IL15/TIGIT-Fab (bispecific antibody)
chain 1: QVQLQESGPGLVKPSETLSLTCAVYGDSITSGYWNWIRKPPGKCLEYIGYISYTGSTYQNPSLKSRITMSRDTSKNQYYLKLSSVTAADTAVYYCARSRAWIRTYFDYWGQGTLVTVSSGGGGSGGGGSGGGGSGGGGSGITCPPPMSVEHADIWVKSYSLYSRERYICNSGFKRKAGTSSLTECVLNKATNVAHWTTPSLKCIRDPALVHQRPAPPSTVTTAGVTPQPESLSPSGKEPAASSPSSNNTAATTAAIVPGSQLMPSKSPSTGTTEISSHESSHGTPSQTTAKNWELTASASHQPPGVYPQGHSDTTEPKSSDKTHTCPPCPAPELLGGPSVFLFPPKPKDTLMISRTPEVTCVVVDVSHEDPEVKFNWYVDGVEVHNAKTKPREEQYNSTYRVVSVLTVLHQDWLNGKEYKCKVSNKALPAPIEKTISKAKGQPREPQVYTLPPSREEMTKNQVSLTCRVKGFYPSDIAVEWESNGQPENNYKTTPPVLKSDGSFFLASKLTVDKSRWQQGNVFSCSVMHEALHNHYTQKSLSLSPGK
chain 2: DIQMTQSPSSLSASVGDRVTITCSVSSSISSSNLHWYQQKPGKAPKPWIYGTSNLASGVPSRFSGSGSGTDYTLTISSLQPEDFATYYCQQWSSYPLTFGCGTKLEIKGGGGSGGGGSGGGGSGGGGSGNWVNVISDLKKIEDLIQSMHIDATLYTESDVHPSCKVTAMKCFLLELQVISLESGDASIHNTVQDLIILANNSLSSNGNVTESGCKECEELEEKNIKEFLQSFVHIVQMFINTS
heavy: QVQLVQSGAEVKKPGSSVKVSCKASGYSFTSYWMNWVRQAPGQGLEWIGMIRPSDSETRLNQMFKDRVTITVDKSTSTAYMELSSLRSEDTAVYYCAGIHDYGHGAYWGQGTLVTVSSASTKGPSVFPLAPSSKSTSGGTAALGCLVKDYFPEPVTVSWNSGALTSGVHTFPAVLQSSGLYSLSSVVTVPSSSLGTQTYICNVNHKPSNTKVDKRVEPKSCDKTHTCPPCPAPELLGGPSVFLFPPKPKDTLMISRTPEVTCVVVDVSHEDPEVKFNWYVDGVEVHNAKTKPREEQYNSTYRVVSVLTVLHQDWLNGKEYKCKVSNKALPAPIEKTISKAKGQPREPQVYTLPPSREEMTKNQVSLWCLVKGFYPSDIAVEWESNGQPENNYDTTPPVLDSDGSFFLYSDLTVDKSRWQQGNVFSCSVMHEALHNHYTQKSLSLSPGK
light: DIQMTQSPSSLSASVGDRVTITCRASENIYSNLAWYQQKPGKSPKLLVYAASHLPDGVPSRFSGSGSGTDYSLTISSLQPEDFATYYCQHFWGTPRTFGQGTKLEIKRTVAAPSVFIFPPSDEQLKSGTASVVCLLNNFYPREAKVQWKVDNALQSGNSQESVTEQDSKDSTYSLSSTLTLSKADYEKHKVYACEVTHQGLSSPVTKSFNRGEC
B2: R1086: TIGIT_VH_IL15RA (R35C)/TIGIT_VL_IL15 (E93C)/PD-L1-Fab (bispecific antibody)
chain 1: QVQLVQSGAEVKKPGSSVKVSCKASGYSFTSYWMNWVRQAPGQGLEWIGMIRPSDSETRLNQMFKDRVTITVDKSTSTAYMELSSLRSEDTAVYYCAGIHDYGHGAYWGQGTLVTVSSGGGGSGGGGSGGGGSGGGGSGITCPPPMSVEHADIWVKSYSLYSRERYICNSGFKCKAGTSSLTECVLNKATNVAHWTTPSLKCIRDPALVHQRPAPPSTVTTAGVTPQPESLSPSGKEPAASSPSSNNTAATTAAIVPGSQLMPSKSPSTGTTEISSHESSHGTPSQTTAKNWELTASASHQPPGVYPQGHSDTTEPKSSDKTHTCPPCPAPELLGGPSVFLFPPKPKDTLMISRTPEVTCVVVDVSHEDPEVKFNWYVDGVEVHNAKTKPREEQYNSTYRVVSVLTVLHQDWLNGKEYKCKVSNKALPAPIEKTISKAKGQPREPQVYTLPPSREEMTKNQVSLTCRVKGFYPSDIAVEWESNGQPENNYKTTPPVLKSDGSFFLASKLTVDKSRWQQGNVFSCSVMHEALHNHYTQKSLSLSPGK
chain 2: DIQMTQSPSSLSASVGDRVTITCRASENIYSNLAWYQQKPGKSPKLLVYAASHLPDGVPSRFSGSGSGTDYSLTISSLQPEDFATYYCQHFWGTPRTFGQGTKLEIKGGGGSGGGGSGGGGSGGGGSGNWVNVISDLKKIEDLIQSMHIDATLYTESDVHPSCKVTAMKCFLLELQVISLESGDASIHNTVQDLIILANNSLSSNGNVTESGCKECEELECKNIKEFLQSFVHIVQMFINTS
heavy: QVQLQESGPGLVKPSETLSLTCAVYGDSITSGYWNWIRKPPGKGLEYIGYISYTGSTYQNPSLKSRITMSRDTSKNQYYLKLSSVTAADTAVYYCARSRAWIRTYFDYWGQGTLVTVSSASTKGPSVFPLAPSSKSTSGGTAALGCLVKDYFPEPVTVSWNSGALTSGVHTFPAVLQSSGLYSLSSVVTVPSSSLGTQTYICNVNHKPSNTKVDKRVEPKSCDKTHTCPPCPAPELLGGPSVFLFPPKPKDTLMISRTPEVTCVVVDVSHEDPEVKFNWYVDGVEVHNAKTKPREEQYNSTYRVVSVLTVLHQDWLNGKEYKCKVSNKALPAPIEKTISKAKGQPREPQVYTLPPSREEMTKNQVSLWCLVKGFYPSDIAVEWESNGQPENNYDTTPPVLDSDGSFFLYSDLTVDKSRWQQGNVFSCSVMHEALHNHYTQKSLSLSPGK
light: DIQMTQSPSSLSASVGDRVTITCSVSSSISSSNLHWYQQKPGKAPKPWIYGTSNLASGVPSRFSGSGSGTDYTLTISSLQPEDFATYYCQQWSSYPLTFGQGTKLEIKRTVAAPSVFIFPPSDEQLKSGTASVVCLLNNFYPREAKVQWKVDNALQSGNSQESVTEQDSKDSTYSLSSTLTLSKADYEKHKVYACEVTHQGLSSPVTKSFNRGEC
B3: R1085: TIGIT_VH_IL15RA (P67C)/TIGIT_VL_IL15 (E90C)/PD-L1-Fab (bispecific antibody)
chain 1: QVQLVQSGAEVKKPGSSVKVSCKASGYSFTSYWMNWVRQAPGQGLEWIGMIRPSDSETRLNQMFKDRVTITVDKSTSTAYMELSSLRSEDTAVYYCAGIHDYGHGAYWGQGTLVTVSSGGGGSGGGGSGGGGSGGGGSGITCPPPMSVEHADIWVKSYSLYSRERYICNSGFKRKAGTSSLTECVLNKATNVAHWTTPSLKCIRDCALVHQRPAPPSTVTTAGVTPQPESLSPSGKEPAASSPSSNNTAATTAAIVPGSQLMPSKSPSTGTTEISSHESSHGTPSQTTAKNWELTASASHQPPGVYPQGHSDTTEPKSSDKTHTCPPCPAPELLGGPSVFLFPPKPKDTLMISRTPEVTCVVVDVSHEDPEVKFNWYVDGVEVHNAKTKPREEQYNSTYRVVSVLTVLHQDWLNGKEYKCKVSNKALPAPIEKTISKAKGQPREPQVYTLPPSREEMTKNQVSLTCRVKGFYPSDIAVEWESNGQPENNYKTTPPVLKSDGSFFLASKLTVDKSRWQQGNVFSCSVMHEALHNHYTQKSLSLSPGK
chain 2: DIQMTQSPSSLSASVGDRVTITCRASENIYSNLAWYQQKPGKSPKLLVYAASHLPDGVPSRFSGSGSGTDYSLTISSLQPEDFATYYCQHFWGTPRTFGQGTKLEIKGGGGSGGGGSGGGGSGGGGSGNWVNVISDLKKIEDLIQSMHIDATLYTESDVHPSCKVTAMKCFLLELQVISLESGDASIHNTVQDLIILANNSLSSNGNVTESGCKECECLEEKNIKEFLQSFVHIVQMFINTS
heavy: QVQLQESGPGLVKPSETLSLTCAVYGDSITSGYWNWIRKPPGKGLEYIGYISYTGSTYQNPSLKSRITMSRDTSKNQYYLKLSSVTAADTAVYYCARSRAWIRTYFDYWGQGTLVTVSSASTKGPSVFPLAPSSKSTSGGTAALGCLVKDYFPEPVTVSWNSGALTSGVHTFPAVLQSSGLYSLSSVVTVPSSSLGTQTYICNVNHKPSNTKVDKRVEPKSCDKTHTCPPCPAPELLGGPSVFLFPPKPKDTLMISRTPEVTCVVVDVSHEDPEVKFNWYVDGVEVHNAKTKPREEQYNSTYRVVSVLTVLHQDWLNGKEYKCKVSNKALPAPIEKTISKAKGQPREPQVYTLPPSREEMTKNQVSLWCLVKGFYPSDIAVEWESNGQPENNYDTTPPVLDSDGSFFLYSDLTVDKSRWQQGNVFSCSVMHEALHNHYTQKSLSLSPGK
light: DIQMTQSPSSLSASVGDRVTITCSVSSSISSSNLHWYQQKPGKAPKPWIYGTSNLASGVPSRFSGSGSGTDYTLTISSLQPEDFATYYCQQWSSYPLTFGQGTKLEIKRTVAAPSVFIFPPSDEQLKSGTASVVCLLNNFYPREAKVQWKVDNALQSGNSQESVTEQDSKDSTYSLSSTLTLSKADYEKHKVYACEVTHQGLSSPVTKSFNRGEC
B4: R1081: TIGIT_VH (G44C)_IL15RA/TIGIT_VL(Q100C)_IL15/PD-L1-Fab (bispecific antibody)
chain 1: QVQLVQSGAEVKKPGSSVKVSCKASGYSFTSYWMNWVRQAPGQCLEWIGMIRPSDSETRLNQMFKDRVTITVDKSTSTAYMELSSLRSEDTAVYYCAGIHDYGHGAYWGQGTLVTVSSGGGGSGGGGSGGGGSGGGGSGITCPPPMSVEHADIWVKSYSLYSRERYICNSGFKRKAGTSSLTECVLNKATNVAHWTTPSLKCIRDPALVHQRPAPPSTVTTAGVTPQPESLSPSGKEPAASSPSSNNTAATTAAIVPGSQLMPSKSPSTGTTEISSHESSHGTPSQTTAKNWELTASASHQPPGVYPQGHSDTTEPKSSDKTHTCPPCPAPELLGGPSVFLFPPKPKDTLMISRTPEVTCVVVDVSHEDPEVKFNWYVDGVEVHNAKTKPREEQYNSTYRVVSVLTVLHQDWLNGKEYKCKVSNKALPAPIEKTISKAKGQPREPQVYTLPPSREEMTKNQVSLTCRVKGFYPSDIAVEWESNGQPENNYKTTPPVLKSDGSFFLASKLTVDKSRWQQGNVFSCSVMHEALHNHYTQKSLSLSPGK
chain 2: DIQMTQSPSSLSASVGDRVTITCRASENIYSNLAWYQQKPGKSPKLLVYAASHLPDGVPSRFSGSGSGTDYSLTISSLQPEDFATYYCQHFWGTPRTFGCGTKLEIKGGGGSGGGGSGGGGSGGGGSGNWVNVISDLKKIEDLIQSMHIDATLYTESDVHPSCKVTAMKCFLLELQVISLESGDASIHNTVQDLIILANNSLSSNGNVTESGCKECEELEEKNIKEFLQSFVHIVQMFINTS
heavy: QVQLQESGPGLVKPSETLSLTCAVYGDSITSGYWNWIRKPPGKGLEYIGYISYTGSTYQNPSLKSRITMSRDTSKNQYYLKLSSVTAADTAVYYCARSRAWIRTYFDYWGQGTLVTVSSASTKGPSVFPLAPSSKSTSGGTAALGCLVKDYFPEPVTVSWNSGALTSGVHTFPAVLQSSGLYSLSSVVTVPSSSLGTQTYICNVNHKPSNTKVDKRVEPKSCDKTHTCPPCPAPELLGGPSVFLFPPKPKDTLMISRTPEVTCVVVDVSHEDPEVKFNWYVDGVEVHNAKTKPREEQYNSTYRVVSVLTVLHQDWLNGKEYKCKVSNKALPAPIEKTISKAKGQPREPQVYTLPPSREEMTKNQVSLWCLVKGFYPSDIAVEWESNGQPENNYDTTPPVLDSDGSFFLYSDLTVDKSRWQQGNVFSCSVMHEALHNHYTQKSLSLSPGK
light: DIQMTQSPSSLSASVGDRVTITCSVSSSISSSNLHWYQQKPGKAPKPWIYGTSNLASGVPSRFSGSGSGTDYTLTISSLQPEDFATYYCQQWSSYPLTFGQGTKLEIKRTVAAPSVFIFPPSDEQLKSGTASVVCLLNNFYPREAKVQWKVDNALQSGNSQESVTEQDSKDSTYSLSSTLTLSKADYEKHKVYACEVTHQGLSSPVTKSFNRGEC

Sequence of PD-L1 (on CHO-PD-L1 cells) (Q9NZQ7 19-290): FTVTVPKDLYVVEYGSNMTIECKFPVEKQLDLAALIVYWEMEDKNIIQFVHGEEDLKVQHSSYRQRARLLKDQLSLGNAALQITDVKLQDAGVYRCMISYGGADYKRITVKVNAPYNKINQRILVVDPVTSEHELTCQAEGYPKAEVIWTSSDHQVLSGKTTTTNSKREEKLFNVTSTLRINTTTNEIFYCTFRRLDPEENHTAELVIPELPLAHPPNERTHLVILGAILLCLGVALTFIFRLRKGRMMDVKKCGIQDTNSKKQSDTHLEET

This assay has as its target PD-L1 (on CHO-PD-L1 cells) (UniProt Q9NZQ7 19-290). In words: FACS binding; Fig. 24. On the technique in general: Flow cytometry measures light scatter and fluorescence of single cells or particles in a stream.
In general, EC50 refers to the concentration at which the effect is half-maximal. As to B1, the midpoint of the response, the EC50, lay at 5.85 nM. On to B2, for which a half-maximal response (EC50) required 2.02 nM. This EC50 is about 2.9-fold lower than that of the molecule before. For B3 the value was 3.2 nM; for B4, 2.37 nM.

(Values after patent publication US20250277023A1 (published 2025).)
